Where two headings read alike, the source gives them in different places. Where no end group is shown, it is not given here. [ ]: non-standard residue; d: D form. The star is where a group is joined. d2Nal = N[C@H](Cc1ccc2ccccc2c1)C(=O)O; Palmitoyl = CCCCCCCCCCCCCCCC(=O)*; Octanoyl = CCCCCCCC(=O)*; Dap = NC[C@H](N)C(=O)O

The target in experiment [1] is T1, ghrelin-R (GHS-R 1a) (Rattus norvegicus, UniProt O08725).
T1 construct: from tissue; host or cells: whole animal (hypothalamus)
Put plainly: Food intake after administration of peptide (FIG. 10). The experiment is classed as in vivo.

Experiment [2] addresses T1, ghrelin-R (GHS-R 1a). Put plainly: Plasma growth hormone / GH secretion after administration of peptide (FIG. 11). Format: in vivo.
Experiment [3] addresses T2, ghrelin O-acyltransferase (GOAT) (Mus musculus, UniProt P0C7A3).
T2 sequence (P0C7A3 1-435): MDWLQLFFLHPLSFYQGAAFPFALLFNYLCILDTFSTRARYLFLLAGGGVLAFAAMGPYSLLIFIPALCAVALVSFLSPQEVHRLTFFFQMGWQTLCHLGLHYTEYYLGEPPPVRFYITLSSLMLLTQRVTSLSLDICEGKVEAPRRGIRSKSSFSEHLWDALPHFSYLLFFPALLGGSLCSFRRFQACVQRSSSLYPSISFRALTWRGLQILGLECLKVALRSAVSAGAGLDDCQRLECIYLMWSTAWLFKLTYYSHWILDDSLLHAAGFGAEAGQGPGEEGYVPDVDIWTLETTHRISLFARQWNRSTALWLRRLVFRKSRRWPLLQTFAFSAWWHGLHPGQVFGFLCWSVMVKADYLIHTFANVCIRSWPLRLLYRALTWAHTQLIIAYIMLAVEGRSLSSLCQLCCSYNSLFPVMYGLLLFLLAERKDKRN
The conditions noted are these: Yang et al. 2008; cited from earlier work.

The target in experiment [4] is T3, GHS-R 1a (Rattus norvegicus, UniProt O08725).
T3 construct: free-moving rats were i.c.v. injected with either normal saline or GHS-A (5 μg); from tissue; host or cells: whole animal (rat; hypothalamus/pituitary)
As to the kind of experiment: Plasma GH (ghrelin-induced, GHRH-induced, spontaneous pulsatile) in free-moving adult male rats after GHS-A. The conditions noted are these: for plasma GH response to ghrelin, central: 5 μg GHS-A i.c.v. 15 min before 500 ng ghrelin i.c.v. Format: in vivo. The protocol: (§1) Adult male Sprague Dawley rats (225-260 g) were purchased from Charles River Canada (St. Constant, Canada) and individually housed on a 12-h light, 12-h dark cycle (lights on, 0600-1800 h) in a temperature (22±1° C.)- and humidity-controlled room. Purina rat chow (Ralston Purina Co., St. Louis, Mo.) and tap water were available ad libitum.
(§2) Chronic intracerebroventricular (i.c.v.) and intracardiac venous cannulas were implanted under sodium pentobarbital (50 mg/kg, i.p.) anesthesia using previously described techniques in (2) and (11). The placement of the icy cannulae was verified by both a positive drinking response to i.c.v. carbachol (100 ng/10 μl) injection on the day after surgery and methylene blue dye at the time of death. After surgery, the rats were placed directly in isolation test chambers with food and H2O freely available until body weight returned to preoperative levels (usually within 5-7 d). During this time the rats were handled daily to minimize any stress associated with handling on the day of the experiment. On the test day, food was removed 1.5 h before the start of sampling and was returned at the end.
The efficacy of GHS-A to antagonize ghrelin's stimulatory action on GH at both central and peripheral sites was examined. […] (500 ng). Both the human ghrelin peptide (provided by Dr. K. Chang, Phoenix Pharmaceuticals, Inc., Belmont, Calif.) and the GHS-A were diluted in normal saline just before use. Blood samples (0.35 ml) were withdrawn every 15 min over a 6-h sampling period (1000-1600 h) from all animals. […] All blood samples were immediately centrifuged, and plasma was separated and stored at −20° C. for subsequent assay of GH. To avoid hemodynamic disturbance, the red blood cells were resuspended in normal saline and returned to the animal after removal of the next blood sample.
Blood samples were withdrawn from 1000-1600 h, as described above.
These time points were chosen because they correspond closely to the time of onset of the spontaneous GH secretory episodes, as previously documented in our laboratory (2, 4). Blood samples were withdrawn from 1000-1600 h, as described above; however, no blood sample was withdrawn 5 min after the injections.

For experiment [5], the target named is Ghrelin/GHRP/GHS Receptor (Rattus norvegicus, UniProt O08725). As to the kind of experiment: In vivo GH release in rat (serum GH by RIA after i.v. peptide). The note with it: Table 2.
For experiment [6], the target named is T3, GHS-R 1a. As to the kind of experiment: Spontaneous and ghrelin-induced food intake in rats after i.c.v. GHS-A. Format: in vivo. The protocol: as §1, §2
The effects of the GHS-A on both spontaneous and ghrelin-induced food intake and body weight gain were investigated. For the spontaneous experiments, the rats were fasted overnight (1600-1100 h next morning) and were i.c.v.-injected with either normal saline or GHS-A (5 μg) at 1100 h. Food intake was monitored on an hourly basis for 5 h after the initial injection (until 1600 h) and subsequently overnight (1600-0900 h next morning). A measured amount of rat chow pellets was placed in the cage every hour. Spillage was collected by placement of a diaper under the rat cages, and total food consumed for each period was calculated by subtracting uneaten food plus spillage from total given. Body weights were recorded daily at 0900 h. The latency to the onset of the first meal after the injection and the duration of that meal were also monitored.
Food intake was monitored on an hourly basis as described above. In this experiment, food was removed 1.5 h before the start of the test.

The mark [7] stands for this setting: listed as Gly-Met-Ala-Gly-Ser-(Dap-Oct)-Phe-Leu-Ser-Pro-Glu-His-NH2.
Where [8] appears, read: listed as Gly-Met-Ala-Gly-Ser-(Dap-Palmityl)-Phe-Leu-Ser-Pro-Glu-His-NH2.
Setting [9] is: 5 μg GHS-A i.c.v., spontaneous GH pulses.
Setting [10] is: overnight-fasted animals, 5 μg GHS-A i.c.v.

T1 sequence (O08725 whole entry): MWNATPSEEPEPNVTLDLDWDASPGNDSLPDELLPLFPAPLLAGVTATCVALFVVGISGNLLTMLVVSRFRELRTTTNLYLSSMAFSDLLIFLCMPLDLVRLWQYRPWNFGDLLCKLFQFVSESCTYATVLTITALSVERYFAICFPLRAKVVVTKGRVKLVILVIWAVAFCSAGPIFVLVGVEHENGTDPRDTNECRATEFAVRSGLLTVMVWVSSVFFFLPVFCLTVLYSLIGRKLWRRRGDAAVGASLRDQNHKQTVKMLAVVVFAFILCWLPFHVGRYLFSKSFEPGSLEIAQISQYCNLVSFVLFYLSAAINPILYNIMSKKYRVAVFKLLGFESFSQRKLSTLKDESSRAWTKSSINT
T3 sequence (O08725 whole entry): as above
Ghrelin/GHRP/GHS Receptor, sequence (O08725 whole entry): as above

As for “Gly-Met-Ala-Gly-Ser-(Dap-Oct)-Phe-Leu-Ser-Pro-Glu-His-NH2 (GMAGS[Dap](Octanoyl)FLSPEH-NH2; N-terminus assumed; SMILES CCCCCCCC(=O)NC[C@H](NC(=O)[C@H](CO)NC(=O)CNC(=O)[C@H](C)NC(=O)[C@H](CCSC)NC(=O)CN)C(=O)N[C@@H](Cc1ccccc1)C(=O)N[C@@H](CC(C)C)C(=O)N[C@@H](CO)C(=O)N1CCC[C@H]1C(=O)N[C@@H](CCC(=O)O)C(=O)N[C@@H](Cc1c[nH]cn1)C(N)=O) [peptide #3]”, the food intake entry in the experiment with ghrelin-R (GHS-R 1a) [1] was “inhibited food intake”; with ghrelin-R (GHS-R 1a) [1] (setting [7]), “reduced”. The “growth hormone secretion / plasma growth hormone levels” value with ghrelin-R (GHS-R 1a) [2] is “inhibited growth hormone secretion”; with ghrelin-R (GHS-R 1a) [2] (setting [7]), “inhibited”.

Turning to “Gly-Met-Ala-Gly-Ser-(Dap-Palmityl)-Phe-Leu-Ser-Pro-Glu-His-NH2 (GMAGS[Dap](Palmitoyl)FLSPEH-NH2; N-terminus assumed; SMILES CCCCCCCCCCCCCCCC(=O)NC[C@H](NC(=O)[C@H](CO)NC(=O)CNC(=O)[C@H](C)NC(=O)[C@H](CCSC)NC(=O)CN)C(=O)N[C@@H](Cc1ccccc1)C(=O)N[C@@H](CC(C)C)C(=O)N[C@@H](CO)C(=O)N1CCC[C@H]1C(=O)N[C@@H](CCC(=O)O)C(=O)N[C@@H](Cc1c[nH]cn1)C(N)=O) [peptide #6]”, in the experiment with ghrelin-R (GHS-R 1a) [1] (setting [8]), the food intake result is given as “did not inhibit GH secretion or decreased food intake”. The “growth hormone secretion / plasma growth hormone levels” value with ghrelin-R (GHS-R 1a) [2] (setting [8]) is “did not inhibit”.

As for “Gly-Ser-Ser(Oct)-Phe-Leu (GSS(Octanoyl)FL) [octanoylated ghrelin pentapeptide]”, in experiment [3], the GOAT activity entry is “inhibited” and the “potency enhancement when octanoylated serine-3 replaced by octanoylated diaminopropionic acid” value was 45 fold.

Take “His-DβNal-DLys-Trp-DPhe-Lys-NH2 (H[d2Nal][dK]W[dF]K-NH2; N-terminus assumed; SMILES NCCCC[C@H](NC(=O)[C@@H](Cc1ccccc1)NC(=O)[C@H](Cc1c[nH]c2ccccc12)NC(=O)[C@@H](CCCCN)NC(=O)[C@@H](Cc1ccc2ccccc2c1)NC(=O)[C@@H](N)Cc1c[nH]cn1)C(N)=O) [GHRP derivative ghrelin receptor antagonist; GHS-A of the rat studies per b295]”: in the experiment with GHS-R 1a [4] (5 μg GHS-A i.c.v.), the “1-h GH AUC of the spontaneous GH secretory episode at 1100 h” value is “significantly reduced”, the “1-h GH AUC of the spontaneous GH secretory episode at 1400 h” value is recorded as “significantly reduced” and the “overall 6-h GH AUC” value is on record as “significantly reduced”. In the experiment with GHS-R 1a [4] (listed as GHS-A), the “plasma GH response to ghrelin, central” value is reported as “abolished”. Besides, the “plasma GH response to ghrelin, central” value with GHS-R 1a [4] (listed as HisDβNalDLysTrpDPheLysNH2) was “virtually obliterated”. The “amplitude of the spontaneous GH pulses” value with GHS-R 1a [4] (5 μg GHS-A i.c.v. 15 min before expected GH secretory bursts) is listed as “severely attenuated”. Moreover, in the experiment with GHS-R 1a [4] (5 μg GHS-A i.c.v., ghrelin 500 ng i.c.v., vs normal saline controls), the “reduction of GH AUC following i.c.v. ghrelin” value stood at 15 fold. In the experiment with GHS-R 1a [4] (setting [9]), the “GH interpeak interval (cluster analysis)” value is on record as “no significant effect”, the “GH nadir (cluster analysis)” value is “no significant effect”, the “GH peak frequency (cluster analysis)” value was “no significant effect” and the “GH peak height (cluster analysis)” value is “significant suppression”. For the same substance, in the experiment with GHS-R 1a [4] (250 μg GHS-A i.v. 15 min before 5 μg ghrelin i.v.), the “plasma GH response to ghrelin, peripheral” value is reported as “strongly blocked”. In the experiment with GHS-R 1a [4] (250 μg GHS-A i.v., ghrelin 5 μg i.v., vs normal saline controls), the “reduction of GH AUC following i.v. ghrelin” value is 5 fold. Further, the “GH response to GHRH” value in the experiment with GHS-R 1a [4] (GHRH 5 μg i.v.) is reported as “did not significantly reduce”. Also, the “Stimulated GH release from rat” value in experiment [5] (peptide antagonist 30 μg i.v. + stimulator DAla-DβNal-Ala-Trp-DPhe-Lys-NH2 0.3 μg) amounted to 733 ± 85 ng/mL. In experiment [5] (peptide antagonist 100 μg i.v. + stimulator DAla-DβNal-Ala-Trp-DPhe-Lys-NH2 1 μg), the “Stimulated GH release from rat” value came out at 818 ± 269 ng/mL. In addition, in the experiment with GHS-R 1a [6] (5 μg GHS-A i.c.v. before ghrelin 500 ng i.c.v., up to 5 h after injection), the “cumulative food intake, ghrelin-stimulated” value is listed as “significantly suppressed”. Further, the “ghrelin-stimulated food intake in the first hour after injections” value with GHS-R 1a [6] (5 μg i.c.v. before ghrelin 500 ng i.c.v.) is on record as “significantly inhibited”. In the experiment with GHS-R 1a [6] (setting [10]), the “cumulative food intake beyond the first hour after injection” value is listed as “not inhibited” and the “spontaneous food intake in the first hour after injection” value is reported as “significantly inhibited”.

(Values after patent US9724381B2 (THE ADMINISTRATORS OF THE TULANE EDUCATIONAL FUND, priority 2009, dated 2017).)
